Test results as given in article PMC2542469 (The Journal of Cell Biology, 2008).

Molecular target: T1, Full-length human histidine-tagged Ndel1 phosphorylated in vitro by both cdk5/p25 and cdk1/cyclin B (human, UniProt Q9GZM8 1-345)
T1 sequence: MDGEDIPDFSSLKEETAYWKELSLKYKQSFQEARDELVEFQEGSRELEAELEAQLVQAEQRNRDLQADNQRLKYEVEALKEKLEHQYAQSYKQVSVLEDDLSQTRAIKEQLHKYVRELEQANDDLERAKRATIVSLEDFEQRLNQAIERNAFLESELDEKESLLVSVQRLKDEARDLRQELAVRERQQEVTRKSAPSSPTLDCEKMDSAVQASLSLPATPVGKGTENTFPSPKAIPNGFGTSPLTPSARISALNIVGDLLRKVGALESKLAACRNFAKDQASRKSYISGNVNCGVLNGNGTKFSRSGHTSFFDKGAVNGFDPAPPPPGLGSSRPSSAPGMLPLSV
Assay: co-IP

fold more Lis1 pulled down than by unphosphorylated Ndel1: ~5 fold
B1: Full-length Lis1, histidine tag cleaved (natural protein)
chain: MVLSQRQRDELNRAIADYLRSNGYEEAYSVFKKEAELDVNEELDKKYAGLLEKKWTSVIRLQKKVMELESKLNEAKEEFTSGGPLGQKRDPKEWIPRPPEKYALSGHRSPVTRVIFHPVFSVMVSASEDATIKVWDYETGDFERTLKGHTDSVQDISFDHSGKLLASCSADMTIKLWDFQGFECIRTMHGHDHNVSSVAIMPNGDHIVSASRDKTIKMWEVQTGYCVKTFTGHREWVRMVRPNQDGTLIASCSNDQTVRVWVVATKECKAELREHEHVVECISWAPESSYSSISEATGSETKKSGKPGPFLLSGSRDKTIKMWDVSTGMCLMTLVGHDNWVRGVLFHSGGKFILSCADDKTLRVWDYKNKRCMKTLNAHEHFVTSLDFHKTAPYVVTGSVDQTVKVWECR
